For the assay, the target named is human LH3 protein with His-tag at the amino-terminus, produced in Sf9 cells (human) (UniProt O60568). Nature of the assay: cell-based or functional assay.
Chain of human LH3 protein with His-tag at the amino-terminus, produced in Sf9 cells (human) (O60568 25-738): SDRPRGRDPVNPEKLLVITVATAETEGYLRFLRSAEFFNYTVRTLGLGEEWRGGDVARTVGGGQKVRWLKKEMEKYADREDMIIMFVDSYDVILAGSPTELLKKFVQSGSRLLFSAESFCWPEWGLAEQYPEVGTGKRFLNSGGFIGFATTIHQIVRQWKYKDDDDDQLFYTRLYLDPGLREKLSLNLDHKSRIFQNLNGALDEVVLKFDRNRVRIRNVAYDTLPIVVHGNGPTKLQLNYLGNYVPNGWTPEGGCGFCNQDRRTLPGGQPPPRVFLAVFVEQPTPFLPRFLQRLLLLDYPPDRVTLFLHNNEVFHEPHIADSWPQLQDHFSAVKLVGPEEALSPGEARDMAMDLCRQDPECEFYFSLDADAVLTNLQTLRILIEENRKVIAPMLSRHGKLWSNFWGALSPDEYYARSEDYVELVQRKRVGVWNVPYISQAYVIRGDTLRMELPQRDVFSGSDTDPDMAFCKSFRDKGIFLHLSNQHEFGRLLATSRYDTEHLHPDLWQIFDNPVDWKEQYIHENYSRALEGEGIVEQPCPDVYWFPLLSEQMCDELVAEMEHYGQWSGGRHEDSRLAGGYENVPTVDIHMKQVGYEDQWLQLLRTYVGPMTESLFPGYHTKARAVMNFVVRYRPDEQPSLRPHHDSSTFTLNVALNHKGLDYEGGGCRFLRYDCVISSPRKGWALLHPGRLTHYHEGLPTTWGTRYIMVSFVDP

As for “monoclonal antibodies against His-tag (Clontech) (antibody)”, the GGT activity in the presence of antibody (% of activity with nonimmune serum) turned out to be 100%.

Values taken from patent US20050048600A1.
